{
  "source": "patent US20090325887A1",
  "about": "(BOARD OF TRUSTEES OF THE UNIVERSITY OF ILLINOIS, published 2009)",
  "data": [
    {"molecular_target": "Cav3.1 channel (α3.1 subunit)", "assay": "cell-based or functional assay", "units": {"inhibition of Cav3.1 current at 30 µM peptide": "%"}, "values": [
      {"binder": "VGATLAVL", "note": "[γ6 TM1b peptide]", "inhibition of Cav3.1 current at 30 µM peptide": 5.5},
      {"binder": "LTTAGAFA", "note": "[γ4 TM1a peptide]", "inhibition of Cav3.1 current at 30 µM peptide": -3.5},
      {"binder": "VGLTLAVL", "note": "[γ6 TM1b A50L peptide]", "inhibition of Cav3.1 current at 30 µM peptide": 15.8},
      {"binder": "LGLLFAFV", "note": "[γ6 TM1a V45FI47F peptide]", "inhibition of Cav3.1 current at 30 µM peptide": 26.3},
      {"binder": "LTLLVAIV", "note": "[γ6 TM1a G42T peptide]", "inhibition of Cav3.1 current at 30 µM peptide": 16.4},
      {"binder": "FGFLVAIV", "note": "[γ6 TM1a L41FL43F peptide]", "inhibition of Cav3.1 current at 30 µM peptide": 20.6}
    ]},
    {"molecular_target": "Cav1.2 channel (α1.2 subunit, with β2a)", "assay": "cell-based or functional assay", "units": {"inhibition of Cav1.2 current at 30 µM peptide": "%"}, "values": [
      {"binder": "VGLFFALA", "note": "[γ1 TM1a T12GI16A peptide]", "inhibition of Cav1.2 current at 30 µM peptide": 27.5},
      {"binder": "VGATLAVL", "note": "[γ6 TM1b peptide]", "inhibition of Cav1.2 current at 30 µM peptide": 6.7},
      {"binder": "LTTAGAFA", "note": "[γ4 TM1a peptide]", "inhibition of Cav1.2 current at 30 µM peptide": -2.5},
      {"binder": "LLILAVGV", "note": "[γ6 TM1a SCR peptide]", "inhibition of Cav1.2 current at 30 µM peptide": 3.2},
      {"binder": "VTLFFILA", "note": "[γ1 TM1a peptide]", "inhibition of Cav1.2 current at 30 µM peptide": 15.5}
    ]}
  ]
}
